Laboratory results from patent US20220204643A1 (published 2022).
Blank lines part the entries; values can stand above or below the binder they belong to.

Tests used:
[1] = target: T1, nudE neurodevelopment protein 1, transcript variant 1 (human, UniProt Q9NXR1 1-335)
T1 construct: HuProt array protein, full-length recombinant from yeast; also called NDE1
T1 sequence: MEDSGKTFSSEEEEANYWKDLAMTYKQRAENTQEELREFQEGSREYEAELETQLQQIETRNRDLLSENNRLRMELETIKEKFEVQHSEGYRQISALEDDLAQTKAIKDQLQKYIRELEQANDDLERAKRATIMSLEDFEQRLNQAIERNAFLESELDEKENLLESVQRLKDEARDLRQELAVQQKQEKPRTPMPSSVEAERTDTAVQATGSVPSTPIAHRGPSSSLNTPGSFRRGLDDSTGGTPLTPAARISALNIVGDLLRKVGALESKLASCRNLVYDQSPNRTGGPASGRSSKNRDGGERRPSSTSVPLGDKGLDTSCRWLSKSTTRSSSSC

[2] = target: T2, ganglioside induced differentiation associated protein 1, transcript variant 2 (human, UniProt Q8TB36 69-358); experiment: protein array
T2 construct: on protein array; also called GDAP1
T2 sequence: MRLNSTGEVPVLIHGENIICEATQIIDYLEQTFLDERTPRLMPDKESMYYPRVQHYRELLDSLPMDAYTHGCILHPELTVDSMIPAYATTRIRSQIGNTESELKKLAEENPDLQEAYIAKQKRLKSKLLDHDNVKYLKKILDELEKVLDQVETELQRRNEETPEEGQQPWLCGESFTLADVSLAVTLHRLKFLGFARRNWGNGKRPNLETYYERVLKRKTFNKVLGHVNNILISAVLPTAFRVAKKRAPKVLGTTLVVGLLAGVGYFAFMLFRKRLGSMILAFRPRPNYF

[3] = target: T3, zinc finger protein 8 (human, UniProt P17098 1-575); experiment: protein array
T3 construct: on protein array; also called ZNF8

[4] = target: T4, SATB homeobox 2, transcript variant 2 (human, UniProt Q9UPW6 1-733); experiment: protein array
T4 construct: on protein array; also called SATB2
T4 sequence: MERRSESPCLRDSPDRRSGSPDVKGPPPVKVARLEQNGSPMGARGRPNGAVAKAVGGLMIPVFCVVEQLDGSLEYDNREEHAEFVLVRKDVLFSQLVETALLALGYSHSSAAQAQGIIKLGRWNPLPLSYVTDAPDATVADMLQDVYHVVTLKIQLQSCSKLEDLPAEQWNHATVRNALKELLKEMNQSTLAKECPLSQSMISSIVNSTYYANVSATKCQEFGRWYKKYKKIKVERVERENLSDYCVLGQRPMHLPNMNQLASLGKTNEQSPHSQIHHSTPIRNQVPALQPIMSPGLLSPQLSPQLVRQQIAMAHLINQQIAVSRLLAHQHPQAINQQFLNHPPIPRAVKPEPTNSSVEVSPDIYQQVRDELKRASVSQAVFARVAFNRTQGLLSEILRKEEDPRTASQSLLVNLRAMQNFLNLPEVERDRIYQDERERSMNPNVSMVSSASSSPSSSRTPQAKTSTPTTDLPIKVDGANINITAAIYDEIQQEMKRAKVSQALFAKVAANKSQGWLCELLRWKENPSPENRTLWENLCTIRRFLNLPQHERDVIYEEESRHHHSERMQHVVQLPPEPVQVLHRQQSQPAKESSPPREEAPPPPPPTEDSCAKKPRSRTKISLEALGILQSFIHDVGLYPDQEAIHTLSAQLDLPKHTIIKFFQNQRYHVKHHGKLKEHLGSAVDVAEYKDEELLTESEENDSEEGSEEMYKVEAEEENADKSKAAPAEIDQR

[5] = target: T5, phospholipid scramblase 4, transcript variant X4 (human, UniProt Q9NRQ2 1-329)
T5 construct: HuProt array protein, full-length recombinant from yeast; also called PLSCR4
T5 chain: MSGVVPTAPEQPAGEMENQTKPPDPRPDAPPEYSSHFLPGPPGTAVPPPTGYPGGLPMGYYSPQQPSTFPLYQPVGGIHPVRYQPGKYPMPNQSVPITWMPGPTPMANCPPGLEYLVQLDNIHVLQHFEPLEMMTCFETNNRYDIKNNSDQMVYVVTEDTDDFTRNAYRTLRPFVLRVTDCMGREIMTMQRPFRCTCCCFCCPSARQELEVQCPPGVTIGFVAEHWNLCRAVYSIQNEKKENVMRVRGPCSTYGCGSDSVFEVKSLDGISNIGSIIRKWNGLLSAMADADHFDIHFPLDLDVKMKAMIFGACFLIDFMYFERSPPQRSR

[6] = target: T6, TruB pseudouridine synthase family member 1 (human, UniProt Q8WWH5 2-349)
T6 construct: HuProt array protein, full-length recombinant from yeast; also called TRUB1
T6 sequence: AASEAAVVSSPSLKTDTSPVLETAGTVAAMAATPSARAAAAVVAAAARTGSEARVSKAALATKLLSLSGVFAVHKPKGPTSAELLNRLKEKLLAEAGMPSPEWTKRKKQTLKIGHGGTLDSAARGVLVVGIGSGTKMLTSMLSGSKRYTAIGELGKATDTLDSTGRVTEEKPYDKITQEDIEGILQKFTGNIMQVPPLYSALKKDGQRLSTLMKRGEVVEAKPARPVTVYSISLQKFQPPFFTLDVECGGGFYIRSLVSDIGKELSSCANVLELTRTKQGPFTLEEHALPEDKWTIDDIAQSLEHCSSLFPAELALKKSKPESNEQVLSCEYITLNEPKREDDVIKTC

[7] = target: T7, nucleosome assembly protein 1 like 1, transcript variant 1 (human, UniProt P55209 2-388)
T7 construct: HuProt array protein, full-length recombinant from yeast; also called NAP1L1
T7 sequence: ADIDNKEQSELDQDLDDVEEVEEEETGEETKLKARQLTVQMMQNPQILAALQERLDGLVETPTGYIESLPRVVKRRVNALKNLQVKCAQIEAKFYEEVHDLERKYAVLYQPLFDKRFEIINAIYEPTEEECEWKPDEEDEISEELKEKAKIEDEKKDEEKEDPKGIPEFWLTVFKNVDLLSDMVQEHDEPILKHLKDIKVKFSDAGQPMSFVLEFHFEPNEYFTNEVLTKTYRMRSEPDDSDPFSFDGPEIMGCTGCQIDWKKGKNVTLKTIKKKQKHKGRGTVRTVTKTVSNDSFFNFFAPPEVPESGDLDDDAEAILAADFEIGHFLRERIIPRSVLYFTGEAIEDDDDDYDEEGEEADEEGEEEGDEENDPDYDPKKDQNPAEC

[8] = target: T8, LN608403.1_frag (human)
T8 construct: HuProt array protein; labelled _frag
T8 chain: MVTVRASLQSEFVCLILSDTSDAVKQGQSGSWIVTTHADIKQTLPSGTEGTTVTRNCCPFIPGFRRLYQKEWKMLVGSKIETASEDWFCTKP

[9] = target: T9, JPX transcript, XIST activator (human)
T9 construct: HuProt array protein; labelled _frag
T9 chain: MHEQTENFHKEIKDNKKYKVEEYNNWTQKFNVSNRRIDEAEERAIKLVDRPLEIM

[10] = target: T10, PNMA family member 5, transcript variant 2 (human, UniProt Q96PV4 1-448)
T10 construct: HuProt array protein, full-length recombinant from yeast; also called PNMA5

[11] = target: T11, phospholipase C delta 1, transcript variant 2 (human, UniProt P51178 1-756)
T11 construct: HuProt array protein, full-length recombinant from yeast; also called PLCD1
T11 sequence: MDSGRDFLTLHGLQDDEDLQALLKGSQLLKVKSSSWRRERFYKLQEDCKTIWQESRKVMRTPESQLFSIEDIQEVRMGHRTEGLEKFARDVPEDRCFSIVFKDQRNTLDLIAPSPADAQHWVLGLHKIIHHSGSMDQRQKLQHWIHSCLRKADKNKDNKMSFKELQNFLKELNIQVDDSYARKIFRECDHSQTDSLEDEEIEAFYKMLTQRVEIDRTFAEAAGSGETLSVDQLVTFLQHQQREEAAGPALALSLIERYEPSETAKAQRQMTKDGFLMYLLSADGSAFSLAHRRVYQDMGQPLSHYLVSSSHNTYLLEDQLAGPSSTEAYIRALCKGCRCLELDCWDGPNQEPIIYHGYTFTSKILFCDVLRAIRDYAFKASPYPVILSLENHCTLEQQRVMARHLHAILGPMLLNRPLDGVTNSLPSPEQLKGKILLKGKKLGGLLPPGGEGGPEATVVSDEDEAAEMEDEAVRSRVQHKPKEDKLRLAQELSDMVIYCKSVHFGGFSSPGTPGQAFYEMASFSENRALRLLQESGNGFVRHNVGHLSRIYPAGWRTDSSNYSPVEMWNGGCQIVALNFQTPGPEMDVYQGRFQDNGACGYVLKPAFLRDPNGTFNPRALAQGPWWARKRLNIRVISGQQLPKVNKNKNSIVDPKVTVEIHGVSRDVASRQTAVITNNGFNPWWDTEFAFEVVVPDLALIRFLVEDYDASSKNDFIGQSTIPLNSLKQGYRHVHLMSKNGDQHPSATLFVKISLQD

[12] = target: T12, zinc finger protein 326, transcript variant 1 (human, UniProt Q5BKZ1 1-582)
T12 construct: HuProt array protein, full-length recombinant from yeast; also called ZNF326
T12 sequence: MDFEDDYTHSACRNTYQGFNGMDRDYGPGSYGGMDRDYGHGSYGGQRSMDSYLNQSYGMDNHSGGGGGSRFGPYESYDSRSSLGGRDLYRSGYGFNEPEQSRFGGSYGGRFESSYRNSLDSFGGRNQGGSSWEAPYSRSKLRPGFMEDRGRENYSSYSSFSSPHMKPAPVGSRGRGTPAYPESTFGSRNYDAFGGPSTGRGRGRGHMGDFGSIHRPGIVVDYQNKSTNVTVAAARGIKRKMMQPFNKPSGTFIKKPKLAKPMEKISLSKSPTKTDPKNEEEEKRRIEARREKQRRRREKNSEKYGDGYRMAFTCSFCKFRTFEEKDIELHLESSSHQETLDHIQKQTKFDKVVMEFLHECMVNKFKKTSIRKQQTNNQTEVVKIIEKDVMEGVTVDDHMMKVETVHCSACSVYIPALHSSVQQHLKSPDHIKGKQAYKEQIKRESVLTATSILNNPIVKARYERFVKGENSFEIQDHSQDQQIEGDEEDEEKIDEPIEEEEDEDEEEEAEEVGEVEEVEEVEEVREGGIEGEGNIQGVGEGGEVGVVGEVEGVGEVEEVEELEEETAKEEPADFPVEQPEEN

T10 sequence (Q96PV4 other isoform, or with tags, fused parts or gaps mutant limits assumed): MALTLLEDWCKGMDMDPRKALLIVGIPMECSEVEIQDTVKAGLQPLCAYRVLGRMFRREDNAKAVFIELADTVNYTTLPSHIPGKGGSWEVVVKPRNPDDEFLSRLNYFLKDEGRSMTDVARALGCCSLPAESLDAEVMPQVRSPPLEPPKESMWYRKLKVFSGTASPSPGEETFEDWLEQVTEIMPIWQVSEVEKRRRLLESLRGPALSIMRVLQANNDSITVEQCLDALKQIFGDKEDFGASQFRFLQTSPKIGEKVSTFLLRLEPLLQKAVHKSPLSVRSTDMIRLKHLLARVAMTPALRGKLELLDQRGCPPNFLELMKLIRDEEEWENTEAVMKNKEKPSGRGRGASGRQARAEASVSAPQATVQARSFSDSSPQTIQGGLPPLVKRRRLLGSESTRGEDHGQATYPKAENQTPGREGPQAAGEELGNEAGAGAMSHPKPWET
T3 sequence (P17098 whole entry): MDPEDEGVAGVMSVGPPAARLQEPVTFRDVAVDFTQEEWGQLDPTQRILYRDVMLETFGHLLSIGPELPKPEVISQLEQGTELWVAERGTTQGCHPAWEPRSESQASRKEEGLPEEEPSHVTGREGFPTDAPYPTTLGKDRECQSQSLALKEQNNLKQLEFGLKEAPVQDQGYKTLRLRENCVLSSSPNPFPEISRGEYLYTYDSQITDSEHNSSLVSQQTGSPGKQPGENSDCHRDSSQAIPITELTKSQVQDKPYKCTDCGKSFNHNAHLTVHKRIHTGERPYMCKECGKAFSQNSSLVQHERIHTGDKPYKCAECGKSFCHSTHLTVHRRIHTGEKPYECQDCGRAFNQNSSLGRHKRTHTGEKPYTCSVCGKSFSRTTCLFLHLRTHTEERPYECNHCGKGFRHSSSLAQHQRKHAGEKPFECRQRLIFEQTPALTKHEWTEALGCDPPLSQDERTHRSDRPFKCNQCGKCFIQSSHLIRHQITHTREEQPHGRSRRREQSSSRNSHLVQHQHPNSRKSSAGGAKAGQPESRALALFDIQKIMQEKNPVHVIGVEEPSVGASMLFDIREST

- binding result [1]: binds
B1: TCER1002 (antibody, V domains shown)
VH: QVQLQESGPGLVKPSETLSLSCTVSGASMNNYYWSWIRQSAGKGLEWIGRIYSSGDTDYNPSLKTRVTMSIDTSKNQFSLNLDSVTAADTATYYCARSFYDTLFYFENWGQGTLVTVSS
VL: DIQMTQSPSTLSASVGDRVTITCRASQSISVWLAWYQQKPGKAPKLLIYKASTLEAGVPSRFSGSGSGTEFSLTISGLQPDDFGTYFCQHYDSYPWTFGQGTKVEMK
notes: detected with anti-human IgG Fc

- binding result [2]: binds
- binding result [3]: binds
- binding result [4]: binds
B2: TBRE1017 (antibody, V domains shown)
VH: QVQLVQSGAEVKKPGASVKVSCKASGYNFRDYYMHWVRQAPGQGLEWMGWINPNSGGTISAQNFQGRVTMTRDTSISTAYMEVNSLRSDDTAVYYCAVGMVTDGFEIWGQGTLVTVSS
VL: PYELTQPPSVSVSPGQTARITCSGDALPNENAFWYQQKPGQAPVLVIYEDIKRPSGIPERFSGSSSGTTVTLTISGVQAEDEADYYCQSVDITSTWVFGGGTKLTVLG
notes: VH/VL only

- binding result [5]: binds
- binding result [6]: binds
B3: TCER1003 (antibody, V domains shown)
VH: QITLKESGPTLVKPTQTLTLTCTFSGFSLTTTDVGVGWIRQPPGKALEWLTIIYWDDDERYSPSLKSRLTITKDTSKNQVVLSMTNMDPVDTATYYCARVYSTKWDFDYWGQGTLVTVSS
VL: VSSELTQDPAVSVALGQTVRITCQGDSLRRYYVSWYRQKPGEAPVVVIYGKNNRPSWIPDRLSGSSSGNTASLTITGAQAEDEADYYCCSRDSSGNPWVFGGGTKLTVLG
notes: as for B1

- binding result [7]: binds
B4: TCER1001 (antibody, V domains shown)
VH: EVQLVESGGGLVQPGRSLRLSCAASGFTFDDYAMHWVRQAPGKGLEWVSGISWNSGSIGYADSVKGRFTISRDNAKNSLYLQMNSLRAEDTALYYCAKDLLGFRDQRNYYGMDVWGQGTTVTVSS
VL: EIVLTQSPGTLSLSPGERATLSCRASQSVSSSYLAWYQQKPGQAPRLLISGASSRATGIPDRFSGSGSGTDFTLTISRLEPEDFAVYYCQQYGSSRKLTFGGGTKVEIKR
notes: as for B1

- binding result [8]: binds
- binding result [9]: binds
B5: TBRE1045 (antibody, V domains shown)
VH: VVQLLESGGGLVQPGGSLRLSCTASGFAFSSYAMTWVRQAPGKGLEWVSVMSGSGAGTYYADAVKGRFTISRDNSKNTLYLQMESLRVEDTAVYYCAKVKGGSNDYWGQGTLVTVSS
VL: PYVLTQPPSVSVAPGQTARITCGGNNIGSKSVHWYQQKPGQAPVMVVYADRERPSGIPERLSGSNFGNTATLTISRVEAGDEADYYCQVWDSNNDHREVFGGGTKLTVLG
notes: as for B1

- binding result [10]: binds
- binding result [11]: binds
- binding result [12]: binds
B6: TBRE1039 (antibody, V domains shown)
VH: PVQLVQSGAEVKKPGSSVKVSCKASGGTFSSYAISWVRQAPGQGLEWMGGIIPIFGTANYAQKFQGRVTITADESTSTAYMELSSLRSEDTAVYYCARENWNSAGTTEWFDPWGQGTLVTVSS
VL: PYVLTQPPSVSVAPGKTARITCGGNNIGSKSVHWYQQKPGQAPVLVIYYDSDRPSGIPERFSGSNSGNTATLTISRVEAGDEADYYCQVWDSSSDHYVVFGGGTKLTVLG
notes: as for B1
